In this assay the target is T1, MNV P domain (protruding domain of the capsid protein VP1 of murine norovirus) (murine norovirus (MNV), strain CW3, UniProt Q80J94 225-541).
T1 chain: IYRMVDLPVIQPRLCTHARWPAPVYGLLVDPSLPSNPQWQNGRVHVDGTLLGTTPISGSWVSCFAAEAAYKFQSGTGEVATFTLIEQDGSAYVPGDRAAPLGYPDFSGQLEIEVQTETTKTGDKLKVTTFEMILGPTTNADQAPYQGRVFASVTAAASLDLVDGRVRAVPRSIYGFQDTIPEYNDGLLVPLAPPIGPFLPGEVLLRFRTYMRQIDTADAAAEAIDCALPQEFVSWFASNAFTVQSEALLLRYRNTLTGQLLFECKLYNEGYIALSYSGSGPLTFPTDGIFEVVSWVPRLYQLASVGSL
Nature of the assay: ITC.

B1: Nanobody NB-5829 (VHH)
VHH: QVQLQESGGGLVEAGGSLRLSCLGSGLTFSRYAMGWFRQAPGKEREFVASITRSGGSPNYADSVKGRFTISRDNAKNTVYLQMSSLKPEDTAVYYCAGRGSVYYDVWGQGTQVTVSS
As usually defined, the Kd is a measure of binding affinity in units of concentration. Lower therefore signals tighter binding. On to B1, for which the Kd came to 1.4 nM. In other words, the single-digit nanomolar range.
